Test results: patent US7148329 (KATHOLIEKE UNIVERSITEIT NIJMEGEN, dated 2006)

T1: DC-Specific ICAM-3 Grabbing Non-integrin (DC-SIGN) (human, UniProt Q9NNX6 1-404)
T1 construct: Type II membrane protein of 404 aa, on monocyte-derived DC or on COS7 cells transfected with pRc/CMV-DC-SIGN; in immunoprecipitation and pull-down it came from DC lysate; also called C-type lectin on dendritic cells
T1 sequence: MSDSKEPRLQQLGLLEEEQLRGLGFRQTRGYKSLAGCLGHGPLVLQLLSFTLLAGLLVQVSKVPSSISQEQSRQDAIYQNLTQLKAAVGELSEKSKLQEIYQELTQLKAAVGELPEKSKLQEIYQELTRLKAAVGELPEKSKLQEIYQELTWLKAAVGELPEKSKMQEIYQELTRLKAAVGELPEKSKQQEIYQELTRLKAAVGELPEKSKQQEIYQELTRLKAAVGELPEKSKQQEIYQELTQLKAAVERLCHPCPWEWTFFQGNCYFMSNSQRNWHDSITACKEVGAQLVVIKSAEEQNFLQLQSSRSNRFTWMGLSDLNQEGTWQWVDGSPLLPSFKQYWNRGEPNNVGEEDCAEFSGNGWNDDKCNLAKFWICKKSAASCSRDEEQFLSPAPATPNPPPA

B1: ICAM-2 expressed on K562 cells (ligand, UniProt P13598 25-275, looked up)
chain: KVFEVHVRPKKLAVEPKGSLEVNCSTTCNQPEVGGLETSLDKILLDEQAQWKHYLVSNISHDTVLQCHFTCSGKQESMNSNVSVYQPPRQVILTLQPTLVAVGKSFTIECRVPTVEPLDSLTLFLFRGNETLHYETFGKAAPAPQEATATFNSTADREDGHRNFSCLAVLDLMSRGGNIFHKHSAPKMLEIYEPVSDSQMVIIVTVVSVLLSLFVTSVLLCFIFGQHLRQQRMGTYGVRAAWRRLPQAFRP
notes: whole, on cells

What was measured:
[1] = target: DC-Specific ICAM-3 Grabbing Non-integrin (DC-SIGN) (human) (UniProt Q9NNX6); assay: cell-based or functional assay
[2] = target: DC-Specific ICAM-3 Grabbing Non-integrin (DC-SIGN) (human) (UniProt Q9NNX6); assay: flow cytometry on COS7 cells transfected with DC-SIGN cDNA
[3] = target: DC-Specific ICAM-3 Grabbing Non-integrin (DC-SIGN) (human) (UniProt Q9NNX6); assay: flow cytometry on DC day 7; meaning of the grade from the table's footnote
[4] = target: T1, DC-Specific ICAM-3 Grabbing …; assay: binding to K562 transfectants (FIG. 8)

Molecule	DC-T cell clustering (percentage of DC which have bound fluorescent T cells) [1] [%]	HIV-1 replication (p24 Gag) in DC-T cell co-culture, DC pre-incubated with antibody before the HIV-1 pulse [1] [%]	T-lymphocyte proliferation induced by allogeneic DC ([3H]methyl-thymidine uptake) [1] [%]	percent of transfected cells stained [2] [%]	mean fluorescence [3]	binding result [4]
AZN-D1 (antibody)	50	> 75	> 75	30	> 400	
AZN-D2 (antibody)	50	> 75	> 75			
B1						binds
